Article PMC5253658, “SCIMP is a transmembrane non-TIR TLR adaptor that promotes proinflammatory cytokine production from macrophages” (Nature Communications, 2017)

T1: His-TLR4-TIR (cytoplasmic TIR domain of mouse TLR4, amino acids 670-835) (mouse, UniProt Q9QUK6 670-835)
T1 construct: TLR4, mouse, cytoplasmic TIR domain, amino acids 670-835; codon-optimized gene from Genscript; subcloned into pET28a; also called His-tagged TLR4-TIR domain; recombinant TLR4-TIR; source: E. coli, purified (Ni-NTA)
T1 sequence (looked up): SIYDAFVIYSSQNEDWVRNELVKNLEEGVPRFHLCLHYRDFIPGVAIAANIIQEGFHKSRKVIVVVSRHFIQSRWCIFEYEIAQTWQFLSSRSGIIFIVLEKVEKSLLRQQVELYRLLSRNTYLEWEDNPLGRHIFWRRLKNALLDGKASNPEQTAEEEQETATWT


How the values were obtained:
[1] = target: T1, His-TLR4-TIR (cytoplasmic TIR domain of …); assay: pull-down; GST-SCIMP (T1, T2 or T1 mutants) as bait, recombinant His-TLR4-TIR as prey; immunoblot against the His tag; conditions: both partners purified
[2] = target: T1, His-TLR4-TIR (cytoplasmic TIR domain of …); assay: other fluorescence titration; BODIPY FL-labelled SCIMP-T1 titrated with unlabelled TLR4-TIR; 25 °C, 30 mM Tris pH 7.4, 150 mM NaCl, 1 mM dithiothreitol; curve fit (Grafit); conditions: both partners purified

Row | Binder | binding result [1] | Kd [2] [nM]
1 | GST-SCIMP-T1 Y96F (domain or fragment, SCIMP, mouse, T1, amino acids 29-150, Y96F; also called (unphosphorylated) Y96F SCIMP mutant; source: E. coli, purified (glutathione-Sepharose beads)) not shown | binds | 
2 | fluorescently labelled recombinant SCIMP-T1 (BODIPY FL) (domain or fragment, labelled with BODIPY FL Iodoacetamide, SCIMP, mouse, T1, amino acids 29-150; also called labelled SCIMP; fluorescently labelled SCIMP-T1; source: E. coli, purified) not shown |  | 212

The next lines start with the values.

Row | binding result [1] | Kd [2] [nM] | Binder
3 | binds |  | GST-SCIMP-T2 (C terminal region of murine SCIMP, amino acids 93-150) (domain or fragment, SCIMP, mouse, C terminal region, amino acids 93-150; lacks the PRD; subcloned into pGEX6p-1; source: E. coli, purified (glutathione-Sepharose beads)) not shown
4 | binds |  | GST-SCIMP-T1 (entire intracellular region of murine SCIMP, amino acids 29-150) (domain or fragment, subcloned into pGEX6p-1; also called SCIMP-GST; source: E. coli, purified (glutathione-Sepharose beads)) not shown
